The target of the test is RBD重组蛋白 (SARS-CoV-2 S蛋白RBD区, 毕赤酵母GJK0601表达) (SARS-CoV-2).

The term EC50 denotes the concentration at which the effect is half-maximal. High values mean weaker potency, low ones greater potency.

B1: 人鼠嵌合全抗体mhC3 (antibody, V domains shown)
VH: EVQLVESGGDLVKPGGSLKLSCAASGFTFNTYAMNWVRQTPGKGLEWVARIRSKSNNYATYYADSVKDRFTISRDDSQSMLYLQMNNLKTEDTAMYYCVTPYYGNYADWFTYWGQGTSVTVSS
VL: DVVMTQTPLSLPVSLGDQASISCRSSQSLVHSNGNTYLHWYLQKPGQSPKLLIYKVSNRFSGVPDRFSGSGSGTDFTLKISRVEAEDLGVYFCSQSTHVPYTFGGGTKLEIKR
notes: also called mhC3抗体; C3 (图5、图6)
The molecule B1 had an EC50 of 0.0129 nM.

Values taken from patent CN111995674A (INST MILITARY MEDICINE ACADEMY MILITARY SCIENCES PLA, dated 2020).
